The test addresses T1, SpyCatcher-GOx (fusion protein with SpyCatcher and glucose oxidase in this order from the N-terminus).
T1 construct: also called SpyCatcher-fused glucose oxidase; SpyCatcher fusion GOx
Description: 5 uM each mixed, overnight at 4 C, SDS-PAGE.

B1: scFv-ST (anti-CRP scFv antibody with SpyTag added) (scFv)
scFv: HMASQVQLQQSGAELVKPGASVKLSCTASGFNIKDYYMHWVKQRTEQGLEWIGRIDPEDGETKYAPKFQGKATITADTSSNTAYLQLSSLTSEDTAVYYCARGYYGSEAMDYWGQGTSLTVSSGGGGSGGGGSGGGGSTGSIVMTQSHKFMSTSVGDRVSITCKASQDVNTAVAWYQQKPGQSPKLLIYWASTRHTGVPDRFTGSGFGTDYTLTISSVQAEDLALYYCQQHYSTPWTFGGGTKLEIKRADAAPKLAAAGSGAHIVMVDAYKPTKAEQKLISEEDLNLGGGMRGSHHHHHH
Take B1: the binding result is given as “binds”.

The values above are taken from patent WO2023191079A1 (dated 2023).
